Experimental data from the Human Domainome abundance scans (Beltran et al. 2025).
± gives the uncertainty stated by the source.

B1: Serine/threonine-protein kinase LATS1, residues 98 to 141; numbered along this chain, O95835 (parent)
chain: TSEVNPQMLQDLQAAGFDEDMVIQALQKTNNRSIEAAIEFISKM

Variants of: B1
Assay: abundance fitness (aPCA) (normalised: wild type 0, dead -1); higher = more abundant; growth selection in yeast, the domain comes from the species named
Details: Homo sapiens

Variant	abundance fitness
TSEVNPQMLQDLQAAGFDEDMVIQALQKTNNRSIEAAIAFISKM [E39A]	-0.103 ± 0.035
TSEVNPQMLQDLQAAGFDEDMVIQALQKTNNRSIEAAIGFISKM [E39G]	-0.217 ± 0.03
TSEVNPQMLQDLQAAGFDEDMVIQALQKTNNRSIEAAISFISKM [E39S]	-0.146 ± 0.036
TSEVNPQMLQDLQAAGFDEDMVIQALQKTNNRSIEAAIFFISKM [E39F]	-0.884 ± 0.13
TSEVNLQMLQDLQAAGFDEDMVIQALQKTNNRSIEAAIEFISKM [P6L]	-0.13 ± 0.035
TSEVNCQMLQDLQAAGFDEDMVIQALQKTNNRSIEAAIEFISKM [P6C]	-0.219 ± 0.098
TSEVNKQMLQDLQAAGFDEDMVIQALQKTNNRSIEAAIEFISKM [P6K]	0.101 ± 0.042
TSEVNVQMLQDLQAAGFDEDMVIQALQKTNNRSIEAAIEFISKM [P6V]	-0.032 ± 0.034
TSEVNGQMLQDLQAAGFDEDMVIQALQKTNNRSIEAAIEFISKM [P6G]	-0.048 ± 0.031
TSEVNPQMLQDLQMAGFDEDMVIQALQKTNNRSIEAAIEFISKM [A14M]	-0.151 ± 0.058
TSEVNPQMLQDLQFAGFDEDMVIQALQKTNNRSIEAAIEFISKM [A14F]	-0.455 ± 0.079
TSEVNPQMLQDLQLAGFDEDMVIQALQKTNNRSIEAAIEFISKM [A14L]	-0.188 ± 0.036
TSEVNPQMLQDLQAAGFDEDMVIQALQKTNNRSIEAAIEFISHM [K43H]	0.169 ± 0.14
TSEVNPQMLQDLQAAGFDEDMVIQALQKTNNRSIEAAIEFISAM [K43A]	0.034 ± 0.036
TSEVNPQMLQDLQAAGFDEDMVIQALQKTNNRSIEAAIEFISPM [K43P]	-0.333 ± 0.057
TSEVNPQMLQDLQAAGFDEDMVIQGLQKTNNRSIEAAIEFISKM [A25G]	-0.443 ± 0.033
TSEVNPQMLQDLQAAGFDEDMVIQELQKTNNRSIEAAIEFISKM [A25E]	-0.668 ± 0.06
TSEVNPQMLQDLQAAGFDEDMVIQLLQKTNNRSIEAAIEFISKM [A25L]	-0.802 ± 0.057
TSEVNPQMLQDLQAAGFDEDMVIVALQKTNNRSIEAAIEFISKM [Q24V]	-0.033 ± 0.033
TSEVNPQMLQDLQAAGFDEDMVIEALQKTNNRSIEAAIEFISKM [Q24E]	0.083 ± 0.038

Variant	abundance fitness
TSEVNPQMLQDLQAAGFDEDMVITALQKTNNRSIEAAIEFISKM [Q24T]	0.009 ± 0.044
TSEVNPQMLQDLQAAGFDEDMQIQALQKTNNRSIEAAIEFISKM [V22Q]	-0.48 ± 0.065
TSEVNPQMLQDLQAAGFDEDMPIQALQKTNNRSIEAAIEFISKM [V22P]	-0.47 ± 0.05
TSEVNPQMLQDLQAAGFDEDMWIQALQKTNNRSIEAAIEFISKM [V22W]	-0.796 ± 0.065
TSEVNPQMLQDLQAAGPDEDMVIQALQKTNNRSIEAAIEFISKM [F17P]	-0.601 ± 0.058
TSEVMPQMLQDLQAAGFDEDMVIQALQKTNNRSIEAAIEFISKM [N5M]	-0.951 ± 0.096
TSEVTPQMLQDLQAAGFDEDMVIQALQKTNNRSIEAAIEFISKM [N5T]	-0.628 ± 0.063
TSEVDPQMLQDLQAAGFDEDMVIQALQKTNNRSIEAAIEFISKM [N5D]	-0.028 ± 0.051
TSEVHPQMLQDLQAAGFDEDMVIQALQKTNNRSIEAAIEFISKM [N5H]	-0.211 ± 0.075
TSEVNPQMLQDLQAAGFDEDMVIQALQATNNRSIEAAIEFISKM [K28A]	0.12 ± 0.038
TSEHNPQMLQDLQAAGFDEDMVIQALQKTNNRSIEAAIEFISKM [V4H]	-0.262 ± 0.055
TSEDNPQMLQDLQAAGFDEDMVIQALQKTNNRSIEAAIEFISKM [V4D]	-0.344 ± 0.049
TSEVNPQMLQDLQAAGFDEDMVIQAPQKTNNRSIEAAIEFISKM [L26P]	-0.341 ± 0.052
TSEVNPQMLQDLQAAGFDEDMVIQAHQKTNNRSIEAAIEFISKM [L26H]	-0.111 ± 0.16
TSEVNPQMLQKLQAAGFDEDMVIQALQKTNNRSIEAAIEFISKM [D11K]	0.083 ± 0.1
TSCVNPQMLQDLQAAGFDEDMVIQALQKTNNRSIEAAIEFISKM [E3C]	-0.855 ± 0.073
TSIVNPQMLQDLQAAGFDEDMVIQALQKTNNRSIEAAIEFISKM [E3I]	-0.529 ± 0.065
TSEVNPQMLQDLQAAGFDEDMVIQALQKTNNRSIENAIEFISKM [A36N]	-0.327 ± 0.13
TSEVNPQMLQDLQAAGFDEDMVIQALQKTNNRSIETAIEFISKM [A36T]	-0.258 ± 0.053
TSEVNPQMLQDLQAAGFDEDMVIQALQKTNNRSIEFAIEFISKM [A36F]	-0.77 ± 0.085

Variant	abundance fitness
TSEVNPQMLQDLQAAGFDEDMVIQALQKTNNRSIEHAIEFISKM [A36H]	-0.206 ± 0.056
TSEVNPQMLQDLQAAGFDEDYVIQALQKTNNRSIEAAIEFISKM [M21Y]	-0.33 ± 0.072
TSEVNPQMLQDLQAAGFFEDMVIQALQKTNNRSIEAAIEFISKM [D18F]	-0.564 ± 0.37
TSEVNPQMLQDLQAAGFLEDMVIQALQKTNNRSIEAAIEFISKM [D18L]	-0.617 ± 0.057
TSEVNPQMLQDLQAAGFPEDMVIQALQKTNNRSIEAAIEFISKM [D18P]	-0.113 ± 0.057
TSEVNPQMLQDLQAAGFDADMVIQALQKTNNRSIEAAIEFISKM [E19A]	-0.097 ± 0.039
TSEVNPQMLQDLQAAGFDMDMVIQALQKTNNRSIEAAIEFISKM [E19M]	-0.228 ± 0.05
TSEVNPQMLQDLQAAGFDCDMVIQALQKTNNRSIEAAIEFISKM [E19C]	-0.218 ± 0.048
TSEVNPQMLQDLQAAGFDKDMVIQALQKTNNRSIEAAIEFISKM [E19K]	0.08 ± 0.045
TSEVNPQMLQDLQAAGFDLDMVIQALQKTNNRSIEAAIEFISKM [E19L]	-0.26 ± 0.041
TSEVNPQMLQDLKAAGFDEDMVIQALQKTNNRSIEAAIEFISKM [Q13K]	0.084 ± 0.052
TSEVNPQMLQDLAAAGFDEDMVIQALQKTNNRSIEAAIEFISKM [Q13A]	-0.131 ± 0.042
TSEVNPQMLQDLQAAGFDEDMVIQALQKTNNRSIEARIEFISKM [A37R]	-0.649 ± 0.046
TSEVNPQMLQDLQAAGFDEDMVIQALQKTNNRSIEADIEFISKM [A37D]	-0.43 ± 0.055
TSEVNPQMLQDLQAAGFDEDMVIQALQKTNNRSIEACIEFISKM [A37C]	-0.376 ± 0.058
TSEVNPQMLQDLQAAGFDEDMVIQALQKVNNRSIEAAIEFISKM [T29V]	-0.191 ± 0.039
TSEVNPQMLQDLQAAGFDEDMVIQALQKWNNRSIEAAIEFISKM [T29W]	-1.09 ± 0.083
TSEVNPQMLQDLQAAGFDEDMVIQALQKDNNRSIEAAIEFISKM [T29D]	-0.902 ± 0.29
